# Source: article PMC8844856, “Structural basis of cyclic oligoadenylate binding to the transcription factor Csa3 outlines cross talk between type III and type I CRISPR systems” (The Journal of Biological Chemistry, 2022)
# “Also recorded” adds a separate entry of the source.
# T1: His6-Csa3Sso (WT) (Saccharolobus solfataricus, UniProt Q97Y88)
# T1 construct: made in house; host or cells: E. coli BL21(DE3)-pLysS
# T1 sequence (Q97Y88 1-237): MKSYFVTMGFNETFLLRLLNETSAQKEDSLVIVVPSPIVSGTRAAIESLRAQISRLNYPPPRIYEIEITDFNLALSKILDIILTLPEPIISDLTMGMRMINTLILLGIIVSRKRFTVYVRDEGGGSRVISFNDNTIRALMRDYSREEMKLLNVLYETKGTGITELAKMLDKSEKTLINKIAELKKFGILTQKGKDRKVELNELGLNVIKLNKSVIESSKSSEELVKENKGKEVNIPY
# T2: Csa3Sso WT (Saccharolobus solfataricus P2, UniProt Q97Y88 1-237)
# T2 sequence: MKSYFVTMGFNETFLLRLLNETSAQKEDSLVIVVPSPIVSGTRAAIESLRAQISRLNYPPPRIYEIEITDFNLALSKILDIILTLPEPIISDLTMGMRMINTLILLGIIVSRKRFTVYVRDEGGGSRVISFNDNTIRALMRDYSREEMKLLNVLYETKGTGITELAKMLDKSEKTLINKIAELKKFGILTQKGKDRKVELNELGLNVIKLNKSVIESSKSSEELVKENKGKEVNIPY
# Legend:
# His6-Csa3Sso (WT) [1] = molecular target: T1, His6-Csa3Sso (WT); assay: Microscale thermophoresis (MST) binding of cOA ligands to wildtype Csa3Sso; settings: MST
# Experimental: The ligand-binding specificity of Csa3Sso (WT) and the role of Csa3Sso residues in ligand binding were determined by microscale Thermophoresis (MST). Wildtype or mutant His6-Csa3Sso (200 nM) was fluorescently labeled in 2× binding buffer (10 mM Na/K phosphate, pH 5.8, 10 mM MgCl2, 25 mM NaCl, and 0.05% Tween 20) using 100 nM RED-Tris NTA His-Tag labeling dye (Nanotemper Technologies, Inc) and incubated in the dark at room temperature for 30 min. Two millimolar stocks of synthetic ligands including cA3, cA4, and cA6 (Biolog Life Science Institute) or linear ribonucleotide 5′-rCrArArArA-3′ (Bio-Synthesis Inc) were serially diluted in a 1:1 ratio with nuclease-free water. The labeled proteins were then mixed with ligands in a 1:1 ratio. Only cA4 was used in the MST experiments with the Csa3Sso mutants (2 mM stocks of cA4 were used for F10A, F14A, G96A, and R98A mutants, and 20 μM stocks were used for E122A and E122Q mutants). The mixtures of proteins and ligands were incubated in the dark at room temperature for 30 min. The precipitated material was removed by centrifugation at 6000 rpm for 5 min. The supernatants were then loaded into Monolith NT.115 Series Premium capillaries in triplicate, and the thermophoresis was detected with 40% excitation power and 40% IR-laser power for an on-time of 20 s at 25 °C.
# (§1) The binding affinities of oligonucleotides and PCas4a to Csa3Sso (WT and mutants) were analyzed according to the law of mass action in a standard fitting mode of MO.Affinity analysis software (version 2.3).
# His6-Csa3Sso (WT) [2] = molecular target: T1, His6-Csa3Sso (WT); assay: MST binding of PCas4a promoter DNA to Csa3Sso with or without cOAs; settings: 50-fold excess of cOA (25 μM)
# Experimental: The MST experiment and data analysis for ligand-induced changes in Csa3Sso binding affinity with PCas4a was performed as mentioned above except for the following: 1 μM of His6-Csa3Sso (WT) was fluorescently labeled in 2× binding buffer with 40 nM RED-Tris NTA His-Tag labeling dye in the absence or presence of cA4 or cA6. The labeling mixtures were incubated in the dark at room temperature for 30 min. A 50 μM stock of PCas4a was serially diluted in 1:1 ratios with nuclease-free water. The labeled proteins ± ligands were then mixed with diluted PCas4a in a 1:1 ratio and incubated in the dark at room temperature for 30 min. The supernatants obtained after removal of precipitated material were then loaded into Monolith NT.115 Series Premium capillaries in triplicate, and the thermophoresis was detected with 100% excitation power and 60% IR-laser power for an on-time of 20 s at 25 °C.
# as §1
# [3] = molecular target: the molecule itself; assay: SEC; Superdex 200 16/70 gel filtration in buffer F (20 mM Tris-HCl pH 8.0, 50 mM NaCl), against globular standards
# [4] = molecular target: the molecule itself; assay: AUC; sedimentation velocity, 20 °C, 40,000 rpm, 10 mM Na/KPO4 pH 5.8, 10 mM NaCl, 25 mM MgCl2; without cA4
# Csa3Sso WT [5] = molecular target: T2, Csa3Sso WT; assay: MST; only nonspecific signal at >=250 uM; MST buffer not given in the material; Cy5 EMSA: 50 nM probe, 0.5-25 uM protein, 5% acrylamide TBE, 4 C; agarose EMSA: 2% TBE, room temperature; crystals: 20 mM; settings: protein: recombinant; tags: N-terminal His6; chain copies: 2; cyclic; no ends
# Csa3Sso WT [6] = molecular target: T2, Csa3Sso WT; assay: EMSA; no cA4; faint shifted band; MST buffer not given in the material; Cy5 EMSA: 50 nM probe, 0.5-25 uM protein, 5% acrylamide TBE, 4 C; agarose EMSA: 2% TBE, room temperature; crystals: 20 mM; settings: protein: recombinant; tags: N-terminal His6; chain copies: 2; label: 5' Cy5 on top strand; blunt
# Csa3Sso WT [7] = molecular target: T2, Csa3Sso WT; assay: MST; apparent Kd; MST buffer not given in the material; Cy5 EMSA: 50 nM probe, 0.5-25 uM protein, 5% acrylamide TBE, 4 C; agarose EMSA: 2% TBE, room temperature; crystals: 20 mM; settings: protein: recombinant; tags: N-terminal His6; chain copies: 2; cyclic; no ends
# Csa3Sso WT [8] = molecular target: T2, Csa3Sso WT; assay: MST; no cOA; precipitate removed; MST buffer not given in the material; Cy5 EMSA: 50 nM probe, 0.5-25 uM protein, 5% acrylamide TBE, 4 C; agarose EMSA: 2% TBE, room temperature; crystals: 20 mM; settings: protein: recombinant; tags: N-terminal His6; chain copies: 2; blunt
molecule,measurement,setting,value
Nc1ncnc2c1ncn2[C@@H]1O[C@@H]2COP(=O)(O)O[C@H]3[C@@H](O)[C@H](n4cnc5c(N)ncnc54)O[C@@H]3COP(=O)(O)O[C@H]3[C@@H](O)[C@H](n4cnc5c(N)ncnc54)O[C@@H]3COP(=O)(O)O[C@H]2[C@H]1O [cA3],specific binding to His6-Csa3Sso,His6-Csa3Sso (WT) [1],lack of Csa3Sso binding
Nc1ncnc2c1ncn2[C@@H]1O[C@@H]2COP(=O)(O)O[C@H]3[C@@H](O)[C@H](n4cnc5c(N)ncnc54)O[C@@H]3COP(=O)(O)O[C@H]3[C@@H](O)[C@H](n4cnc5c(N)ncnc54)O[C@@H]3COP(=O)(O)O[C@H]3[C@@H](O)[C@H](n4cnc5c(N)ncnc54)O[C@@H]3COP(=O)(O)O[C@H]3[C@@H](O)[C@H](n4cnc5c(N)ncnc54)O[C@@H]3COP(=O)(O)O[C@H]3[C@@H](O)[C@H](n4cnc5c(N)ncnc54)O[C@@H]3COP(=O)(O)O[C@H]2[C@H]1O [cA6],specific binding to His6-Csa3Sso,His6-Csa3Sso (WT) [1],only cA4 exhibited a specific low micromolar binding
same,effect of excess cOA on PCas4a binding affinity of Csa3Sso,His6-Csa3Sso (WT) [2],no significant effect; also recorded: did not significantly change
"Saccharolobus solfataricus Csa3 (Csa3Sso), N-terminally His6-tagged, wildtype (natural protein, UniProt Q97Y88 1-237, looked up, Csa3 (CRISPR Apern 3, a Csa3a homolog) of Saccharolobus solfataricus strain P2, Sso1445, UniProtKB Q97Y88; full-length; the His6-tagged construct has 248 a.a; (MW theor 28.1 kDa); Synthetic gene in pBB75 (or pET21b); also called His6-Csa3Sso; Csa3Sso (WT); source: E. coli BL21(DE3)-pLysS, purified (lysate heated at 65 °C, HisTrap, Mono-Q flow-through, Cibacron Blue, Superdex 200); not shown: …) MKSYFVTMGFNETFLLRLLNETSAQKEDSLVIVVPSPIVSGTRAAIESLRAQISRLNYPPPRIYEIEITDFNLALSKILDIILTLPEPIISDLTMGMRMINTLILLGIIVSRKRFTVYVRDEGGGSRVISFNDNTIRALMRDYSREEMKLLNVLYETKGTGITELAKMLDKSEKTLINKIAELKKFGILTQKGKDRKVELNELGLNVIKLNKSVIESSKSSEELVKENKGKEVNIPY",stoichiometry N,[3],2
"Csa3Sso-R98A mutant, N-terminally His6-tagged (natural protein, Saccharolobus solfataricus, UniProt Q97Y88 1-237, looked up, Csa3 of Saccharolobus solfataricus strain P2, Sso1445, UniProtKB Q97Y88; full-length, with R98A; Synthetic gene in pBB75; source: E. coli BL21(DE3)-pLysS, purified (lysate heated at 65 °C, HisTrap, Mono-Q flow-through, Cibacron Blue, Superdex 200); not shown: His6, N-terminal, kept) MKSYFVTMGFNETFLLRLLNETSAQKEDSLVIVVPSPIVSGTRAAIESLRAQISRLNYPPPRIYEIEITDFNLALSKILDIILTLPEPIISDLTMGMAMINTLILLGIIVSRKRFTVYVRDEGGGSRVISFNDNTIRALMRDYSREEMKLLNVLYETKGTGITELAKMLDKSEKTLINKIAELKKFGILTQKGKDRKVELNELGLNVIKLNKSVIESSKSSEELVKENKGKEVNIPY",stoichiometry N,[4],2
"AAA (ssRNA, cyclic tri-adenylate) [cA3]",binding result,Csa3Sso WT [5],no binding
"Cy5-PCas4a (dsDNA, 5' amino-modified top strand) DNA 1: AAAGAATTCCCGAATTTACTAGGGAT DNA 2: ATCCCTAGTAAATTCGGGAATTCTTT",binding result,Csa3Sso WT [6],binds
"AAAA (ssRNA, cyclic, 3'-5' linked tetra-adenylate (CHEBI:142457)) [cA4]",Kd,Csa3Sso WT [7],5.8 ± 0.03 µM
PCas4a (dsDNA) DNA 1: AAAGAATTCCCGAATTTACTAGGGAT DNA 2: ATCCCTAGTAAATTCGGGAATTCTTT,Kd,Csa3Sso WT [8],1.62 ± 0.17 µM
